These results are taken from paper PMC5502268, “DNA Methylation Influences Chlorogenic Acid Biosynthesis in Lonicera japonica by Mediating LjbZIP8 to Regulate Phenylalanine Ammonia-Lyase 2 Expression”.

Data set [1] has as its target T1, LjbZIP8 (Lonicera japonica, UniProt A0A4Y1JSE6 1-144).
T1 sequence: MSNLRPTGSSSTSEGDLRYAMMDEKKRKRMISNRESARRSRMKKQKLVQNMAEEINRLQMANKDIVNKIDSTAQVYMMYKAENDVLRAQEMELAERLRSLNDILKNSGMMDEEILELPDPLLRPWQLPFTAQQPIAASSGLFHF
The data set can be described thus: EMSA; inhibited by unlabelled probe (200x in legend; 4 pmol vs 40 fmol in Methods); 40 fmol biotin probe, 15 fmol protein, 0 or 4 pmol competitor, room temperature 20 min, Pierce LightShift kit 20148; binding buffer, salt and pH not stated. Conditions: protein: recombinant; tags: GST (pGEX-4T-1); chain copies: 2; blunt. For orientation: Mobility shift assays separate free from complexed probe on a gel.

Data set [2] addresses T2, LjbZIP10 (Lonicera japonica, UniProt A0A4Y1JSG2 1-361).
T2 sequence: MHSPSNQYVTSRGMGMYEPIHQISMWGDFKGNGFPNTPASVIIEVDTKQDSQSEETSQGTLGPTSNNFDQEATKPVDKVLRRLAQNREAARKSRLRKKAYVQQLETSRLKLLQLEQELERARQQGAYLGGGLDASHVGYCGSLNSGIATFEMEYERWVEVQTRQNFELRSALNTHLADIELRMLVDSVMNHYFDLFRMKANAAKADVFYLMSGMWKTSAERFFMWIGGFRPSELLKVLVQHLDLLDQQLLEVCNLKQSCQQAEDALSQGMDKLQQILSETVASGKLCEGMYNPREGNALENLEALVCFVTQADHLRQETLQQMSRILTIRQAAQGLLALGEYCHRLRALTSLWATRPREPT
The data set can be described thus: EMSA; 40 fmol biotin probe, 15 fmol protein, 0 or 4 pmol competitor, room temperature 20 min, Pierce LightShift kit 20148; binding buffer, salt and pH not stated. Conditions: protein: recombinant; tags: GST (pGEX-4T-1); chain copies: 2; blunt.

B1: LjPAL2 G-box probe (dsDNA)
DNA 1: CTCTCCTGTCCACGTGTCATCAAC
DNA 2: GTTGATGACACGTGGACAGGAGAG
With B1, the binding result in data set [1] is “binds”; in data set [2], “no binding”.
